Laboratory results taken from patent publication US20250376539A1 (KIRA PHARMACEUTICALS SUZHOU, published 2025).

T1: recombinant cynomolgus (cyno) complement C2 (XP_005553508.1), C-terminal 6His-tag, made in house (CHO cell … (cynomolgus monkey (Macaca fascicularis), UniProt P06681 21-752 (human entry)))
T1 construct: also called cyno C2; Cyno C2
T1 chain: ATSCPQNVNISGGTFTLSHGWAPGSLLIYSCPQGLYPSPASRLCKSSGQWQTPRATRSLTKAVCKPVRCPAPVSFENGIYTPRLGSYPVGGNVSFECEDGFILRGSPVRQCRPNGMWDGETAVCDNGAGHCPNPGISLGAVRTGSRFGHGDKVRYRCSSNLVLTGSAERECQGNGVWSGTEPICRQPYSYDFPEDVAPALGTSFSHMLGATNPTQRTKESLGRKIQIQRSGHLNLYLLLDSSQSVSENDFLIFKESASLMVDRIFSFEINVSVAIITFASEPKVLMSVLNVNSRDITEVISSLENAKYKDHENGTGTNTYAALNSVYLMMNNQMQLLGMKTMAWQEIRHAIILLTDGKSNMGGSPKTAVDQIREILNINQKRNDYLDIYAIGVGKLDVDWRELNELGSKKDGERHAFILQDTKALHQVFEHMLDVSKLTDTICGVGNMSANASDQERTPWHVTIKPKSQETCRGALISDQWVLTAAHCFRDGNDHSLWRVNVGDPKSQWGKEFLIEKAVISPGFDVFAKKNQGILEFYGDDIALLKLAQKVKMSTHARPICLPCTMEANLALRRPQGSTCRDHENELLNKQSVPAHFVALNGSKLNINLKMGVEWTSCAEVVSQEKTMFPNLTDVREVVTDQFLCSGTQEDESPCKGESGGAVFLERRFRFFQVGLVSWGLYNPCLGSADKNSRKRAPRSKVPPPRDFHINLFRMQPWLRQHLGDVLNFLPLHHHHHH

T2: recombinant human complement C2 (NP_000054.2), C-terminal 6His-tag, made in house (CHO cell expression) (human, UniProt P06681 21-752)
T2 construct: a linker before the tag is not described; also called human C2; Human C2
T2 sequence: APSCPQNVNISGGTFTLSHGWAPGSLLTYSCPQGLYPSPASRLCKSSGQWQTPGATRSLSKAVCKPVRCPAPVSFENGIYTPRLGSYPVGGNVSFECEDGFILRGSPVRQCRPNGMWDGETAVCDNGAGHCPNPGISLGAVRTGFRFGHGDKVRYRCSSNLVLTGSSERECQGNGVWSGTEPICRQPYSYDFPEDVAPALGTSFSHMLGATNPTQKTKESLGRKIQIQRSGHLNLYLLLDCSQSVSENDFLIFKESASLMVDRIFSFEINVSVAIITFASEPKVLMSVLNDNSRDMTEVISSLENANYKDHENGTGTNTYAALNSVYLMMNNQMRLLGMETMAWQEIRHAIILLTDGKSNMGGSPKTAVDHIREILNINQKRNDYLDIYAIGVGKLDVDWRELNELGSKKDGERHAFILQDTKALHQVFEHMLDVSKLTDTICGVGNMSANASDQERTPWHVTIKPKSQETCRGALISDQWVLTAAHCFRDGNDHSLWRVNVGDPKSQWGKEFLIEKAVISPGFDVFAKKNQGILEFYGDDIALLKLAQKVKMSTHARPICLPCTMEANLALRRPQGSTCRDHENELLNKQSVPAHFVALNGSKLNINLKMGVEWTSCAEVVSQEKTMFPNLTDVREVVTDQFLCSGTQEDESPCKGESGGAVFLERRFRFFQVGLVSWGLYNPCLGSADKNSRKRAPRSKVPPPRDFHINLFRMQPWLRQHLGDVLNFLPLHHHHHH

T3: recombinant human C2a, C-terminal 6His-tag, made in house (CHO cell expression) (human, UniProt P06681 244-752)
T3 sequence: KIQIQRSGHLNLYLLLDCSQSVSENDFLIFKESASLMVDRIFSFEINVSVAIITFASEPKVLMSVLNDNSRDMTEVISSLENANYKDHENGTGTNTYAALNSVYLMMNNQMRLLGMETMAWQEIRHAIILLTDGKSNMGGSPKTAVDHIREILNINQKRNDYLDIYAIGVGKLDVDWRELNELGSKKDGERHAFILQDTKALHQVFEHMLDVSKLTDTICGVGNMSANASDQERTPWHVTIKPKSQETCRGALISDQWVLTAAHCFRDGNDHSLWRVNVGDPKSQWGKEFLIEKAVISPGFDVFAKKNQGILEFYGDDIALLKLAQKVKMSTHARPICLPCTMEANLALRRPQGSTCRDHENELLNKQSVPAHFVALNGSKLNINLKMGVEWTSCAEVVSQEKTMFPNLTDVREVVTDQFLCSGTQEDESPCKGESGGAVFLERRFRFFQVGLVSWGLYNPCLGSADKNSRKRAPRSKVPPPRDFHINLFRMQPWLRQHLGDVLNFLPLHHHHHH

T4: recombinant cyno C2a, C-terminal 6His-tag, made in house (CHO cell expression) (cynomolgus monkey, UniProt P06681 244-752 (human entry))
T4 chain: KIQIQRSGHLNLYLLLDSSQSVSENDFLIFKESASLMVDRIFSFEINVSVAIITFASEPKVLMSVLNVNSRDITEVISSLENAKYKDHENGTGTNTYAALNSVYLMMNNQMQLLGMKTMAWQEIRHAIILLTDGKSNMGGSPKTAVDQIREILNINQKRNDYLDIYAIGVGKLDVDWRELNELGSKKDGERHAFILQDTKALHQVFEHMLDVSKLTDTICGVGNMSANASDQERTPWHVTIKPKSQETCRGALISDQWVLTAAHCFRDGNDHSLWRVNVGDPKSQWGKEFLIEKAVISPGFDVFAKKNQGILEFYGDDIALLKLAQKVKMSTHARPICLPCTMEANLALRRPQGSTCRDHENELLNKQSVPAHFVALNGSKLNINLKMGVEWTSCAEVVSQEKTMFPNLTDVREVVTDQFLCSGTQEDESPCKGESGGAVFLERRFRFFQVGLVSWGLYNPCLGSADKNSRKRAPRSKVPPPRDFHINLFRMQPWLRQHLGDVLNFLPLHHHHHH


What was measured:
[1] = biological target: T1, recombinant cynomolgus (cyno) …; test: binding kinetics (BLI presumed)
[2] = biological target: T2, recombinant human complement C2 …; test: binding kinetics, neutral pH (BLI presumed)
[3] = biological target: T2, recombinant human complement C2 …; test: BLI (Gator); ratio of dissociation at pH 5.8 to pH 7.4
Experimental: (§1) The histidine mutant constructs in Table 4 were tested for their pH-dependent dissociation from human C2. Probe-immobilized anti-C2 antibodies were incubated with C2 at pH 7.4 for 600s, followed by a 600s dissociation period in K Buffer at pH 7.4 or pH 5.8. The data were processed and analyzed by the Gator evaluation software.
(§2) Non-fusion mAb were used for comparison.

[4] = biological target: T1, recombinant cynomolgus (cyno) …; test: as above
Experimental: as §1, §2

[5] = biological target: T2, recombinant human complement C2 …; test: BLI (Gator), antibody on probe; 600 s association at pH 7.4, 600 s dissociation at pH 5.8
Experimental: as §1, §2

[6] = biological target: T1, recombinant cynomolgus (cyno) …; test: as above
Experimental: as §1, §2

[7] = biological target: T2, recombinant human complement C2 …; test: BLI (Gator), antibody on probe; 600 s association at pH 7.4, 600 s dissociation at pH 7.4
Experimental: as §1, §2

[8] = biological target: T1, recombinant cynomolgus (cyno) …; test: as above
Experimental: as §1, §2

[9] = biological target: T2, recombinant human complement C2 …; test: ELISA
[10] = biological target: T3, recombinant human C2a, C-terminal …; test: ELISA
[11] = biological target: T4, recombinant cyno C2a, C-terminal …; test: ELISA
[12] = biological target: T1, recombinant cynomolgus (cyno) …; test: ELISA on cyno C2, OD450nm against log Ab conc. (nmol/L)

Kd [1] [nM]	koff [1] [s⁻¹]	kon [1] [M⁻¹ s⁻¹]	Kd [2] [nM]	koff [2] [s⁻¹]	kon [2] [M⁻¹ s⁻¹]	Fold dissociation pH 5.8/pH 7.4 [3] [fold]	Fold dissociation pH 5.8/pH 7.4 [4] [fold]	Dissociation (%) pH 5.8 [5] [%]	Dissociation (%) pH 5.8 [6] [%]	Dissociation (%) pH 7.4 [7] [%]	Dissociation (%) pH 7.4 [8] [%]	EC50 [9] [nM]	EC50 [10] [nM]	EC50 [11] [nM]	binding result [12]	Binder
0.222	9.84e-05	442000	0.172	6.05e-05	353000	8.2	7.53	56.7	62.9	6.91	8.35	–	–	–	–	3.2 H2-10 (a representative pH dependent 3.2 comprising a histidine mutation in the heavy chain CDR2) (antibody, V domains shown) VH: EVQLLESGGGLVQPGGSLRLSCAASGFTFRHYAMSWVRQAPGKGLEWVSLISGSGASTHYADSVKGRFTISRDNSENMLYLQMNSLRAEDTAVYYCAKDSLAVAGSEYFQHWGQGTLVTVSS VL: SYVLTQAPSVSVAPGQTARITCGGNYFGGKSVHWYQQRPGQAPVLVVYDDSDRPSGIPERFSGSKSGNTATLAISRVEAGDEAAYYCQVYDTSSDHWVFGGGTKLTVL
–	–	–	–	–	–	–	–	–	–	–	–	0.165	0.0457	0.042	binds	anti-C2 antibody 149.46 (antibody, IgG4, V domains shown, Recombinant) VH: QVQLQQSGPGLVKPSQPLSLTCAISGDSVSSNSATWSWIRQSPSRGLEWLGRTYYRSKWYHDYAVFVKSRMTINPDTSKNQFSLQLNSVTPEDTAVYYCARGGMPASDIPHFDNWGQGILVTVSS VL: SYELTQPPSLSVSPGQTASITCSGHKLGDKYACWYQQKPGQSPVLVIYQDNKRPSGIPERFSGSNSGNTATLTISGTQALDEADYYCQAWDSITYVFGTGTKVTVL
